B1: full-length NATA2 (enzyme, Arabidopsis thaliana, UniProt Q9ZV06 1-236, looked up)
chain: MAAAAPPPPPTAAPEPNMVAPLISPIGHPMFSRIRLATPSDVPFIHKLIHQMAVFERLTHLFSATESGLASTLFTSRPFQSFTVFLLEVSRSPFPATITSSPSPDFTPFFKTHNLDLPIDDPESYNFSPDMLNDVVVAGFVLFFPNYSSFLSKPGFYIEDIFVREPYRRKGFGSMLLTAVAKQAVKMGYGRVEWVVLDWNVNAIKFYEQMGAQILQEWRVCRLTGDALEAFDQVNI
B2: N-terminally truncated NATA2 (30-236, NATA2Δ) (enzyme, Arabidopsis thaliana, UniProt Q9ZV06 30-236, looked up)
chain: MFSRIRLATPSDVPFIHKLIHQMAVFERLTHLFSATESGLASTLFTSRPFQSFTVFLLEVSRSPFPATITSSPSPDFTPFFKTHNLDLPIDDPESYNFSPDMLNDVVVAGFVLFFPNYSSFLSKPGFYIEDIFVREPYRRKGFGSMLLTAVAKQAVKMGYGRVEWVVLDWNVNAIKFYEQMGAQILQEWRVCRLTGDALEAFDQVNI
B3: N-terminally truncated NATA1 (19-228, NATA1Δ) (enzyme, Arabidopsis thaliana, UniProt Q9ZV05 19-228, looked up)
chain: TGHRMFSRIRLATPTDVPFIHKLIHQMAVFERLTHLFVATESGLASTLFNSRPFQAVTVFLLEISPSPFPTTHDASSPDFTPFLETHKVDLPIEDPDREKFLPDKLNDVVVAGFVLFFPNYPSFLAKQGFYIEDIFMREPYRRKGFGKLLLTAVAKQAVKLGVGRVEWIVIDWNVNAINFYEQMGAQVFKEWRLCRLTGDALQAIDKLNI

The series deals with the molecule itself. Briefly: crystal structure.
With B1, the stoichiometry N (in general, a count of units in the complex or per binding partner) came to 2.

In the case of B2, the “stoichiometry N” value is 2.

Consider B3, for which the “stoichiometry N” value stood at 2.

Source of the values: paper doi:10.1101/2024.03.04.583282 (bioRxiv, 2024).
